The values below come from US8080531B2, “Methods for modulating checkpoint activation through TopBP1” (California Institute of Technology, priority 2006, dated 2011).

Data set [1] concerns Xchk1. Nature of the data set: Checkpoint-dependent phosphorylation of Xchk1 in XtopBP1-depleted egg extracts with aphidicolin and sperm nuclei. In kind it is biochemical, Xenopus. The settings on record: added back to XtopBP1-depleted extract, aphidicolin. From the text:
Applicants proceeded to remove endogenous XtopBP1 from egg extracts by immunodepletion with anti-XtopBP1 antibodies (FIG. 7C). In parallel, Applicants used control antibodies to prepare mock-depleted extract. Next, Applicants added back wild-type His6-XtopBP1 or the His6-XtopBP1-W1138R mutant to aliquots of the XtopBP1-depleted extract. Finally, Applicants added aphidicolin and demembranated Xenopus sperm nuclei to the various extracts in order to create stalled replication forks and then examined phosphorylation of Xchk1 (FIG. 7D).
(§1) Extracts from Xenopus eggs were prepared as described (Kumagai and Dunphy, 2000). A DNA replication checkpoint response was induced by addition of 50 μg/ml aphidicolin into extracts containing demembranated sperm nuclei (3000 per μl) (Kumagai and Dunphy, 2000). To monitor DNA replication, extracts containing 1000 sperm nuclei/μl were incubated with [α-^32P]dATP (Yoo et al., 2004).
Xatr and Xatrip were immunodepleted as described (Kumagai et al., 2004). For immunodepletion of XtopBP1, we incubated 100 μl egg extract twice for 60 min with 10 μl Affiprep protein A beads (BioRad) containing 35 μg anti-XtopBP1 antibodies.

Data set [2] has as its system Xatr-Xatrip. Briefly: Kinase assay of Xatr-Xatrip complexes isolated from Xenopus egg extracts. In kind it is biochemical. The settings on record: for activation of Xatr kinase activity toward PHAS-I: isolated Xatr-Xatrip complexes, 32P-ATP, result in words. From the text: Specifically, Applicants first isolated Xatr from egg extracts by pull-downs with FLAG-tagged Xenopus ATRIP (Xatrip). For these experiments, Applicants used both full-length Xatrip and an N-terminal truncation mutant (ΔN222) that supports normal Xatr-dependent activation of Xchk1 in egg extracts (Kumagai et al., 2004; Kim et al., 2005).
Applicants eluted the beads with FLAG peptide and mixed the eluates with a His6-tagged version of XtopBP1 that had been purified from baculovirus-infected insect cells (FIG. 1B). Finally, Applicants added ^32P-ATP and PHAS-I, a commonly used model substrate for ATR (Abraham, 2001).
Xatrip-FLAG and XatripΔN222-FLAG (20 ng/μl each) were incubated in interphase extracts containing anti-FLAG M2 antibody beads (Sigma) for 60 min at room temperature. The beads were isolated and washed twice with buffer A (10 mM HEPES-KOH (pH 7.5), 150 mM NaCl, 0.1% CHAPS, and 2.5 mM EGTA) and twice with HEPES-buffered saline (HBS; 10 mM HEPES-KOH (pH 7.5) and 150 mM NaCl). Xatr-Xatrip complexes were eluted in one-tenth the volume of the egg extract in HBS containing 0.1 mg/ml 3×-FLAG peptide (Sigma) for 60 min at 4° C. Eluates (2 μl) were used for kinase assays as described below.
(§2) Samples were incubated in 20 μl kinase buffer (50 mM Tris-HCl (pH 7.5), 10 mM MgCl2, 1 mM dithiothreitol, 100 μM nonradioactive ATP, and 100 μCi/ml [γ-^32P]ATP) containing 12.5 μg/ml PHAS-I or 50 μg/ml GST-Xmcm2 (62-122) for 30 min at room temperature. GST-XtopBP1 (972-1279) was added at a final concentration of 100 μg/ml unless indicated otherwise. In some cases, GST-Xmcm2 (62-122), GST-Xchk1 (306-352), or full-length Xchk1-Myc-His6 were used as substrates with only […] nonradioactive ATP. Reactions were terminated by boiling in gel sample buffer.

Data set [3] has as its system chromosomal DNA replication. Nature of the data set: Chromosomal DNA replication in XtopBP1-depleted egg extracts. In kind it is biochemical, Xenopus. The settings on record: XtopBP1-depleted extracts with protein added back. The protocol:
In conjunction with these experiments, Applicants also examined chromosomal DNA replication in extracts containing either wild-type or W1138R His6-XtopBP1. […] Therefore, the defect in phosphorylation of Xchk1 in the extracts containing this mutant is not due to a failure in the assembly of DNA replication forks.
as §1

Another data set has as its system Xatm. Nature of the data set: Kinase assay of immunoprecipitated Xatm toward PHAS-I. It is filed as biochemical, Xenopus. The settings on record: Xatm immunoprecipitated from egg extracts. The protocol: Applicants have also shown that TopBP1 is a specific activator of ATR and not a general activator of the PIKK family. Specifically, Applicants immunoprecipitated both Xatr and Xatm in parallel from Xenopus egg extracts and then incubated the immunoprecipitates with GST-XtopBP1 (972-1279) (FIG. 3F).
as §2

Data set [4] addresses T1, human ATR (Homo sapiens, UniProt Q13535).
T1 construct: expressed in transfected cells; host or cells: U2OS GW33 cells (doxycycline-inducible), nuclear extract, anti-FLAG purification
Briefly: Kinase assay of recombinant human FLAG-ATR against S92 of GST-Xmcm2 (62-122). In kind it is biochemical. The settings on record: wild-type human FLAG-ATR from U2OS nuclear extracts. The method, then: (§3) Specifically, Applicants isolated wild-type and kinase-deficient versions of FLAG-tagged human ATR from nuclear extracts of U2OS cells that conditionally express these proteins (FIG. 5C). The recombinant ATR proteins were purified with anti-FLAG magnetic beads under conditions that preserve the binding of endogenous ATRIP (Ünsal-Kacmaz and Sancar, 2004). Next, Applicants incubated both the wild-type and kinase-deficient FLAG-ATR preparations in the absence or presence of GST-XtopBP1 (972-1279), and measured kinase activity against S92 of the GST-Xmcm2 (62-122) peptide.
as §2
(§4) U2OS cells conditionally expressing wild-type (GW33) or kinase-deficient (GK41) human FLAG-ATR were cultured as described (Nghiem et al., 2001). Cells were induced with 1 μg/ml doxycycline for 48 hr. Nuclear extracts were prepared as described (Dignam et al., 1983) except that nuclei were lysed by brief sonication and the concentration of NaCl in the nuclear isolation buffer was reduced to 350 mM in order to preserve the binding of endogenous ATRIP to recombinant ATR. FLAG-ATR proteins were isolated by an overnight incubation with anti-FLAG antibodies bound to protein G-magnetic beads (Dynal) and eluted with 3×-FLAG peptide.

Data set [5] relates to human ATR. The description is as above. In kind it is biochemical. The protocol:
as §3, §2, §4

Data set [6] concerns Xatr-Xatrip. Nature of the data set: Glutathione bead pull-down of Xatr and Xatrip from egg extracts. In kind it is binding, Xenopus. The method, then: (§5) Specifically, Applicants incubated glutathione beads containing GST-XtopBP1 (972-1279) in egg extracts, reisolated the beads, and performed immunoblotting for both Xatr and Xatrip. […] In addition, in other experiments, there was no binding of Xatr or Xatrip to beads containing GST fusions of the 1-348, 333-646, or 623-984 segments from XtopBP1 (data not shown).
(§6) Applicants also tested to see if the association of XtopBP1 with Xatr depends upon Xatrip. For this experiment, Applicants removed endogenous Xatrip from egg extracts by immunodepletion with anti-Xatrip antibodies. As described previously, this procedure leaves behind approximately 30% of the endogenous Xatr, the fraction that is not in a complex with Xatrip (Kumagai et al., 2004). Next, Applicants added GST-XtopBP1 (972-1279) to the Xatrip-depleted extracts and to mock-depleted extracts that had been prepared in parallel.

Data set [7] has as its target Xatr-Xatrip (Xenopus laevis, UniProt Q9DE14). The data set is described as above. In kind it is binding. Further details: incubated glutathione beads containing GST-XtopBP1 (972-1279) in egg extracts, reisolated the beads, and performed immunoblotting for both Xatr and Xatrip; Applicants removed endogenous Xatrip from egg extracts by immunodepletion with anti-Xatrip antibodies; from tissue; host or cells: Xenopus egg extract. The settings on record: Xatrip-depleted extracts. The protocol: as §5, §6

Data set [8] relates to Xchk1. Briefly: Ectopic phosphorylation of 35S-Xchk1 in Xenopus egg extracts without checkpoint-inducing DNA. In kind it is biochemical. The settings on record: 35S-Xchk1, tautomycin, no checkpoint-inducing DNA template. The protocol: Because the GST-XtopBP1 (972-1279) fragment could activate Xatr in vitro without the inclusion of DNA, Applicants reasoned that ectopic addition of this fragment to Xenopus egg extracts might also be able to trigger the Xatr-dependent phosphorylation of Xchk1 even in the absence of a checkpoint-inducing DNA template.
as §1

Sequence of Xatr-Xatrip (Q9DE14 whole entry, the tested form may be a part): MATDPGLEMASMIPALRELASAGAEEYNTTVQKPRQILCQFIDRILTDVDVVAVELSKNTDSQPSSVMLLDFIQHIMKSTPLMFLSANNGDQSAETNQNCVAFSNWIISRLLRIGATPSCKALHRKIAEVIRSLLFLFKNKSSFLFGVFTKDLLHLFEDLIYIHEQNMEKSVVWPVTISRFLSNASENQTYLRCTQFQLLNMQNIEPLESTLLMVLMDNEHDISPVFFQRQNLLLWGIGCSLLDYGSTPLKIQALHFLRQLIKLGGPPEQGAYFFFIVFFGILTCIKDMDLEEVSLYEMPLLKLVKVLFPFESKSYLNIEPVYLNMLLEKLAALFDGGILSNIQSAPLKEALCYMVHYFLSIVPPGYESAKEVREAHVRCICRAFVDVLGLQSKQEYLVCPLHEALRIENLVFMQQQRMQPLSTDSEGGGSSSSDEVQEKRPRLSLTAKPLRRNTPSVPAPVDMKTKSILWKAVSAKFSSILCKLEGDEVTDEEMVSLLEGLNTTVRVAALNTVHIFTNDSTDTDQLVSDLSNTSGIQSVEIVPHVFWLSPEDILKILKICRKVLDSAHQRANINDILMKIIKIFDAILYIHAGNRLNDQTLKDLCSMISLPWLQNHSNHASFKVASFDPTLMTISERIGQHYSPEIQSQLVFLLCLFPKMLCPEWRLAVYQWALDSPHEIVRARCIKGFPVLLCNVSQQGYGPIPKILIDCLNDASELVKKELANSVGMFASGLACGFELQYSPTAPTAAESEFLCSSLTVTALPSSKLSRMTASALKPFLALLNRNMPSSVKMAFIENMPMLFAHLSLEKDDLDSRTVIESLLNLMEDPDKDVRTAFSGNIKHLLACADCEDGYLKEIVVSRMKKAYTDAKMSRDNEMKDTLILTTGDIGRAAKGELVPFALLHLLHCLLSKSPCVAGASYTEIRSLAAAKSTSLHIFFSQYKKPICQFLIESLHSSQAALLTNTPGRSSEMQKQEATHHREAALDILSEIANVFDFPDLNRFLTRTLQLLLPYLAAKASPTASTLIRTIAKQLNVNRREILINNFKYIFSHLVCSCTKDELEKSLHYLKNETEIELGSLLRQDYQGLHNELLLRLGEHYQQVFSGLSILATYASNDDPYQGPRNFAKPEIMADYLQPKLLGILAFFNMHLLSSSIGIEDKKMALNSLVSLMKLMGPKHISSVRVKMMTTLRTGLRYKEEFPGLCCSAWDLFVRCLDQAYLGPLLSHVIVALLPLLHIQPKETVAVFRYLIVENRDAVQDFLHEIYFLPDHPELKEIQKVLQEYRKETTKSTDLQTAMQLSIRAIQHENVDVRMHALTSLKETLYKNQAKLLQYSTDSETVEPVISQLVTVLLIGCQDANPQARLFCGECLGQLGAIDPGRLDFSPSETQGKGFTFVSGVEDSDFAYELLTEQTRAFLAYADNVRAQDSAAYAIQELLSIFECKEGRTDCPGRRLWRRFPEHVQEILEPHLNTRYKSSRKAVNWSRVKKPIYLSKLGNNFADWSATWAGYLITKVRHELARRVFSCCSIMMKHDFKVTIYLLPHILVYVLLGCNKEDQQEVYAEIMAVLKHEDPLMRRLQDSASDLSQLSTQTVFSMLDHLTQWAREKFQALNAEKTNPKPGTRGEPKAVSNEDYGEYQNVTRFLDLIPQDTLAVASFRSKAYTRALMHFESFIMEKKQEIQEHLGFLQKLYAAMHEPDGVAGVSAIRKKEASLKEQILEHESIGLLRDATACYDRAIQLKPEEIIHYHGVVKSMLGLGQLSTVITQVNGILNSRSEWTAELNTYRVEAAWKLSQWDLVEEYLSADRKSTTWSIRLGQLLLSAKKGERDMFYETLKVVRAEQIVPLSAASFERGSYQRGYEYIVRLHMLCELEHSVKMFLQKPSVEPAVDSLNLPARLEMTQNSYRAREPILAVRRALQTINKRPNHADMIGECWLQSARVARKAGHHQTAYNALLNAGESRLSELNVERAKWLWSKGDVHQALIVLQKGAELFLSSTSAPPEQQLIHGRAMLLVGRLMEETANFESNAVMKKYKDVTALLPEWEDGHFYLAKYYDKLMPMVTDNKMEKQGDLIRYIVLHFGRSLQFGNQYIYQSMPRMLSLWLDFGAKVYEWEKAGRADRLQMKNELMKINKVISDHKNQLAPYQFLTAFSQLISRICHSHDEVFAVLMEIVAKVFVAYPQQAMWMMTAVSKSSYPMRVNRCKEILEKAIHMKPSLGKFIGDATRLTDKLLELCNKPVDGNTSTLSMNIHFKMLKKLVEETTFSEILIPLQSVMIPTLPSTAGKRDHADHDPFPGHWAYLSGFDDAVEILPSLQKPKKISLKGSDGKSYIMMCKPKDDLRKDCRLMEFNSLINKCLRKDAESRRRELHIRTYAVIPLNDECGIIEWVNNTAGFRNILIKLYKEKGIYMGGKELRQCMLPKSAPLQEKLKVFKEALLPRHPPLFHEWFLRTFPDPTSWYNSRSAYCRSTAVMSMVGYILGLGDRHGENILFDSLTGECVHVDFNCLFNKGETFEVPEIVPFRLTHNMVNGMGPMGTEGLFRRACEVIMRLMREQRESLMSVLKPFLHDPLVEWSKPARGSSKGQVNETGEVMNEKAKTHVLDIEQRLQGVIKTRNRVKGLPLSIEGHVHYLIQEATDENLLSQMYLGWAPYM
Sequence of Xatr-Xatrip (Xenopus laevis, UniProt Q9DE14) (Q9DE14 whole entry): as the sequence (Q9DE14 whole entry, the tested form may be a part) above

As for “His6-XtopBP1-W1138R: version of full-length His6-XtopBP1 with the W1138R mutation”, in the data set on Xchk1 [1], the “rescue of phosphorylation of Xchk1” value is given as “could not restore the phosphorylation of Xchk1”. The “activation of Xatr kinase activity toward PHAS-I” value with Xatr-Xatrip [2] was “unable to activate Xatr”. Besides, the “chromosomal DNA replication” value in data set [3] is recorded as “not inhibited”.

B1: GST-XtopBP1 (972-1279): GST fusion protein containing conserved region between BRCT domains VI and VII (residues 972-1279) of XtopBP1 (protein)
chain: EQQKRVPEALYPHTYNPKMSLDISAVQDGSYTASKFSADTSLQQDENSELQLQQNNKFGETSDDQVKKAAGDGNPQNPSKDVKGALTQTLEMRENFQRQLQEFMSATSVVKPRGSVGRAGFDNSPCTPEGARSTRNGRSRVLEALRQSRQAMTDLNTEPSQNEQIIWDDPTAREERAKLVSNLQWPDSPSQYSEQLQHNMNDAGGNYTPAKESLTDSEIAELEACEFEPKSAMRTPVIENNLQSPTKPDHLTPTPQAPSIAFPLANPPVAPQPREKPVQPFSKEETLKERRFQLSSLDPQERIDYSQL
modifications: left off: a dimerising Fc or GST
notes: GST fusion protein containing conserved region between BRCT domains VI and VII (residues 972-1279) of XtopBP1
As to B1, the “activation of Xatm” value in the data set on Xatm is reported as “no activation of Xatm”. Further, in the data set with human ATR [4], the “kinase activity of wild-type FLAG-ATR” value is reported as “large increase”. Moreover, the “kinase activity in mock preparation of magnetic beads” value in the data set with human ATR [5] (beads lacking anti-FLAG antibodies) is given as “did not induce any kinase activity”. Moreover, in the data set on human ATR [5] (kinase-deficient human FLAG-ATR), the “activity of kinase-deficient FLAG-ATR” value is “neither the intact nor W1138R mutant form of GST-XtopBP1 (972-1279) had any effect”. In addition, the “binding of Xatr to the XtopBP1 fragment” value in the data set with Xatr-Xatrip [6] (Xatrip-depleted extracts plus recombinant XatripΔN222-FLAG) was “restore the binding”; in the data set on Xatr-Xatrip [6] (mock-depleted extracts), “good binding”; in the data set with Xatr-Xatrip [7], “no binding”. In addition, in the data set on Xatr-Xatrip [6] (egg extracts, immunoblotting), the “binding of Xatr and Xatrip to glutathione beads” value was “could clearly detect binding”. Further, the “activation of immunoprecipitated Xatr” value in the data set with Xatr-Xatrip [2] (Xatr immunoprecipitated from egg extracts, PHAS-I) was “strong activation”. Also, the “activation of Xatr kinase activity toward PHAS-I” value in the data set with Xatr-Xatrip [2] was “induced activation of Xatr as effectively as full-length XtopBP1”. In the data set on Xatr-Xatrip [2] (substrate GST-Xmcm2 (62-122), S92), the “Xatr-dependent phosphorylation of GST-Xmcm2 (62-122) peptide” value is recorded as “induced a strong Xatr-dependent phosphorylation”. Also, in the data set on Xatr-Xatrip [2] (substrates GST-Xchk1 (306-352) and Xchk1-Myc-His6), the “phosphorylation of GST-Xchk1 (306-352) peptide and full-length Xchk1-Myc-His6 on S344” value is “readily induced phosphorylation”. In the data set with Xchk1 [8], the “phosphorylation of Xchk1 in egg extracts” value is “very robust phosphorylation”.
